Data taken from patent US20240352134A1 (published 2024).

Columns and labels:
[1] = molecular target: Dog CCR8 (dog); assay: FACS binding, dog CCR8-293T cells
[2] = molecular target: T1, mouse CCR8 (mouse, UniProt P56484 1-353); assay: FACS binding, mouse CCR8-CHOK1 cells
T1 chain: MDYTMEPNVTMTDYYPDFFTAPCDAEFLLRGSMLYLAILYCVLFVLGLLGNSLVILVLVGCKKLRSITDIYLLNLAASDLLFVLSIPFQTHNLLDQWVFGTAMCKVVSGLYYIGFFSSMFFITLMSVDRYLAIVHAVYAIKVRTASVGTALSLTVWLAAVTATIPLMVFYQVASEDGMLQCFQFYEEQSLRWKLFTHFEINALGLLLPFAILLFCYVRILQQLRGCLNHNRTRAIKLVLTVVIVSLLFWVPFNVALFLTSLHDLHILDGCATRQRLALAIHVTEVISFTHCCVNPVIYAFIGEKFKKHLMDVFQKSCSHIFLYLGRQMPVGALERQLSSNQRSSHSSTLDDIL

[3] = molecular target: T2, cynomolgus CCR8 (cynomolgus, UniProt G7NYJ2 1-355); assay: FACS binding, cyno CCR8-293T cells
T2 chain: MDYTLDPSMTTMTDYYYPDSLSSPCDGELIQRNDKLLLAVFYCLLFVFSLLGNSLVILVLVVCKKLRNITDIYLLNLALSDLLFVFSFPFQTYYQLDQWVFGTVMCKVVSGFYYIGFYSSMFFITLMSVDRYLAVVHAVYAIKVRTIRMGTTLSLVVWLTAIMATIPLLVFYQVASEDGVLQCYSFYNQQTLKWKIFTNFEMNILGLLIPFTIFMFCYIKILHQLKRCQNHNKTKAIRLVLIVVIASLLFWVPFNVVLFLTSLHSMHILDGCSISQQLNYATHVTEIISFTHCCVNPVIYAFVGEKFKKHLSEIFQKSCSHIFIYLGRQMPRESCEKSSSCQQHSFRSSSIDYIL

[4] = molecular target: T3, rat CCR8 (rat, UniProt D4ADE0 1-353); assay: FACS binding, rat CCR8-293T cells
T3 chain: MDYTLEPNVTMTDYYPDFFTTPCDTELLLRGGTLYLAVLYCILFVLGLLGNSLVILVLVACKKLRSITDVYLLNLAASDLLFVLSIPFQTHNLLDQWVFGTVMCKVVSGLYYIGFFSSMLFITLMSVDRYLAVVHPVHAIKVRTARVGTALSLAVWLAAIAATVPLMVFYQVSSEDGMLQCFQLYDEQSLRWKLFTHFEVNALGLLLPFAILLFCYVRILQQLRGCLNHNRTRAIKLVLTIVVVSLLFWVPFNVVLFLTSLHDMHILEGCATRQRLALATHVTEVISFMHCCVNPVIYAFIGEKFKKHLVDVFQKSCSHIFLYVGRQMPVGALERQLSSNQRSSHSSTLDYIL

- EC50 [1]: 2 nM
- EC50 [2]: 0.79 nM
- EC50 [3]: 23.1 nM
- EC50 [4]: 3.2 nM
B1: 3F11hz4 (antibody, V domains shown)
VH: EVQLVESGGGLVQPGGSLKLSCAASGFSFNTYAMNWVRQASGKGLEWVGRIRSKSNYYATYYAASVKGRFTISRDDSKSTLYLQMNSLKTEDTAVYYCVRGRELGDYYAMDYWGQGTLVTVSS
VL: DIVMTQSPLSLPVTPGEPASISCRSSKSLLHSNGNTYLYWFLQKPGQSPQLLIYRMSNLASGVPDRFSGSGSGTDFTLKISRVEAEDVGVYYCMQHLEYPFTFGQGTKLEIK
